Molecular target: mouse MBL (mannose-binding lectin of mouse serum, bound to mannan)

B1: recombinant mouse MASP-2 (rMASP-2) (protein)
chain: TLLGSKWPEPVFGRLVSPGFPEKYADHQDRSWTLTAPPGYRLRLYFTHFDLELSYRCEYDFVKLSSGTKVLATLCGQESTDTEQAPGNDTFYSLGPSLKVTFHSDYSNEKPFTGFEAFYAAEDVDECRVSLGDSVPCDHYCHNYLGGYYCSCRAGYILHQNKHTCSALCSGQVFTGRSGYLSSPEYPQPYPKLSSCTYSIRLEDGFSVILDFVESFDVETHPEAQCPYDSLKIQTDKGEHGPFCGKTLPPRIETDSHKVTITFATDESGNHTGWKIHYTSTARPCPDPTAPPNGSISPVQATYVLKDRFSVFCKTGFELLQGSVPLKSFTAVCQKDGSWDRPMPECSIIDCGPPDDLPNGHVDYITGPQVTTYKAVIQYSCEETFYTMSSNGKYVCEADGFWTSSKGEKLPPVCEPVCGLSTHTIGGRIVGGQPAKPGDFPWQVLLLGQTTAAAGALIHDNWVLTAAHAVYEKRMAASSLNIRMGILKRLSPHYTQAWPEEIFIHEGYTHGAGFDNDIALIKLKNKVTINGSIMPVCLPRKEAASLMRTDFTGTVAGWGLTQKGLLARNLMFVDIPIADHQKCTTVYEKLYPGVRVSANMLCAGLETGGKDSCRGDSGGALVFLDNETQRWFVGGIVSWGSINCGAAGQYGVYTKVINYIPWNENIISNF
C4 deposition on mannan-coated wells (sMAP-/- mouse serum): the amount of C4 was restored by up to 46% of that of wild-type serum in a dose-dependent manner and reached a plateau (FIG. 25B)
